Experimental data published in EP4792830A2 (Pfizer Inc., dated 2026).
Read-outs that look alike come from different tables or passages of the source.

T1: rabTFPI K1K2 (rabbit, limits assumed)
T1 construct: also called Rabbit TFPI K1K2
T1 chain: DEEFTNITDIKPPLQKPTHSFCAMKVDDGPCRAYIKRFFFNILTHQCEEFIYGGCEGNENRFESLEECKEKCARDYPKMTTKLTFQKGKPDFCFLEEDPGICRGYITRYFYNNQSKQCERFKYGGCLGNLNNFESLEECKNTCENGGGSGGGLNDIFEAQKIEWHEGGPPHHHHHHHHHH


How the values were obtained:
rabTFPI K1K2 [1] = target: T1, rabTFPI K1K2; assay: ELISA, TFPI on streptavidin plate
rabTFPI K1K2 [2] = target: T1, rabTFPI K1K2; assay: SPR, antibody ligand, TFPI analyte
rabTFPI K1K2 [3] = target: T1, rabTFPI K1K2; assay: ELISA, TFPI on streptavidin plate
rabTFPI K1K2 [4] = target: T1, rabTFPI K1K2; assay: SPR (summary table)
rabTFPI K1K2 [5] = target: T1, rabTFPI K1K2; assay: SPR, antibody ligand, TFPI analyte

Row | Binder | EC50 (rabTFPI K1K2 [3]) | other results
1 | 6B7.c5 (antibody, human IgG1, kappa, V domains shown, Mouse hybridoma antibody) VH: EVLLQQSGPELVKPGSSVKIPCKASGYTFTDYTMDWVKQSHGKSLEWIGDINPSNGGSIYNRKFKGKATLTVDKSSSTAYMELRSLTSEDTAVYYCARMHYNYDGFPYWGQGTLVTVSA VL: DIVMTQSHKFMSTSVGDRVSITCKASQDVITAVAWYQQKPGQSPKLLIYWASTRHTGVPVRFTGSGSGTDYTLTIISVQAEDLALYYCQQHYSTPYTFGGGTKLEIKA | – | EC50 (rabTFPI K1K2 [1]): 0.129 nM; Kd (rabTFPI K1K2 [2]): 4.95 nM; koff (rabTFPI K1K2 [2]): 0.00564 s⁻¹; kon (rabTFPI K1K2 [2]): 1.14e+06 M⁻¹ s⁻¹
2 | 4D8-Vk1.0 x VH1.0 (antibody, human IgG1, kappa, V domains shown, Humanized 4D8 variant) VH: EVQLVESGGGLVQPGGSLRLSCAASGYTFTDYNLDWVRQAPGKGLEWVADINPINGATLYNQKFKGRFTISRDNAKNSLYLQMNSLRAEDTAVYYCARYYGDYDAMDYWGQGTLVTVSS VL: DIQMTQSPSSLSASVGDRVTITCKASQDVHTAVAWYQQKPGKAPKLLIYWASTRHTGVPSRFSGSGSGTDFTLTISSLQPEDFATYYCQQHYTTPYTFGQGTKLEIKR | 0.0785 nM | –
3 | hz4D8 (antibody, human IgG1, kappa, V domains shown, humanized, human IgG1 3M / kappa; also called 4D8-Vk1.1 x VH1.4; 4D8 Vk 1.1 x VH 1.4) VH: EVQLVESGGGLVQPGGSLRLSCAASGYTFTDYNLDWVRQAPGKGLEWVADINPINGATLYNQKFKGRFTISRDQAKNSLYLQMNSLRAEDTAVYYCARYYGDYDAMDYWGQGTLVTVSS VL: DIQMTQSPSSLSASVGDRVTITCKASQDVHTAVAWYQQKPGKAPKLLIYWASTRHTGVPSRFSGSGSGTDYTLTISSLQPEDFATYYCQQHYTTPYTFGQGTKLEIKR | 0.0716 nM | Kd (rabTFPI K1K2 [4]): 0.502 nM; Kd (rabTFPI K1K2 [5]): 0.502 nM; koff (rabTFPI K1K2 [5]): 0.0029 s⁻¹; kon (rabTFPI K1K2 [5]): 3.16e+06 M⁻¹ s⁻¹
4 | 4D8-Vk1.0 x VH1.2 (antibody, human IgG1, kappa, V domains shown, Humanized 4D8 variant) VH: EVQLVESGGGLVQPGGSLRLSCAASGYTFTDYNLDWVRQAPGKGLEWVGDINPINGATLYNQKFKGRFTISRDNAKNSLYLQMNSLRAEDTAVYYCARYYGDYDAMDYWGQGTLVTVSS VL: DIQMTQSPSSLSASVGDRVTITCKASQDVHTAVAWYQQKPGKAPKLLIYWASTRHTGVPSRFSGSGSGTDFTLTISSLQPEDFATYYCQQHYTTPYTFGQGTKLEIKR | 0.0422 nM | –
5 | 4D8-Vk1.1 x VH1.1 (antibody, human IgG1, kappa, V domains shown, Humanized 4D8 variant) VH: EVQLVESGGGLVQPGGSLRLSCAASGYTFTDYNLDWVRQAPGKGLEWVGDINPINGATLYNQKFKGRATISVDQAKNSAYLQMNSLRAEDTAVYYCARYYGDYDAMDYWGQGTLVTVSS VL: DIQMTQSPSSLSASVGDRVTITCKASQDVHTAVAWYQQKPGKAPKLLIYWASTRHTGVPSRFSGSGSGTDYTLTISSLQPEDFATYYCQQHYTTPYTFGQGTKLEIKR | 0.0788 nM | –

More lines, main results first:

Row | EC50 (rabTFPI K1K2 [3]) | Binder | other results
6 | 0.0451 nM | 4D8-Vk1.1 x VH1.0 (antibody, human IgG1, kappa, V domains shown, Humanized 4D8 variant) VH: EVQLVESGGGLVQPGGSLRLSCAASGYTFTDYNLDWVRQAPGKGLEWVADINPINGATLYNQKFKGRFTISRDNAKNSLYLQMNSLRAEDTAVYYCARYYGDYDAMDYWGQGTLVTVSS VL: DIQMTQSPSSLSASVGDRVTITCKASQDVHTAVAWYQQKPGKAPKLLIYWASTRHTGVPSRFSGSGSGTDYTLTISSLQPEDFATYYCQQHYTTPYTFGQGTKLEIKR | –
7 | 0.0426 nM | 4D8-Vk1.0 x VH1.4 (antibody, human IgG1, kappa, V domains shown, Humanized 4D8 variant) VH: EVQLVESGGGLVQPGGSLRLSCAASGYTFTDYNLDWVRQAPGKGLEWVADINPINGATLYNQKFKGRFTISRDQAKNSLYLQMNSLRAEDTAVYYCARYYGDYDAMDYWGQGTLVTVSS VL: DIQMTQSPSSLSASVGDRVTITCKASQDVHTAVAWYQQKPGKAPKLLIYWASTRHTGVPSRFSGSGSGTDFTLTISSLQPEDFATYYCQQHYTTPYTFGQGTKLEIKR | –
8 | 0.0705 nM | 4D8-Vk1.0 x VH1.1 (antibody, human IgG1, kappa, V domains shown, Humanized 4D8 variant) VH: EVQLVESGGGLVQPGGSLRLSCAASGYTFTDYNLDWVRQAPGKGLEWVGDINPINGATLYNQKFKGRATISVDQAKNSAYLQMNSLRAEDTAVYYCARYYGDYDAMDYWGQGTLVTVSS VL: DIQMTQSPSSLSASVGDRVTITCKASQDVHTAVAWYQQKPGKAPKLLIYWASTRHTGVPSRFSGSGSGTDFTLTISSLQPEDFATYYCQQHYTTPYTFGQGTKLEIKR | –
9 | 0.0511 nM | 4D8-Vk1.1 x VH1.3 (antibody, human IgG1, kappa, V domains shown, Humanized 4D8 variant) VH: EVQLVESGGGLVQPGGSLRLSCAASGYTFTDYNLDWVRQAPGKGLEWVADINPINGATLYNQKFKGRATISRDNAKNSLYLQMNSLRAEDTAVYYCARYYGDYDAMDYWGQGTLVTVSS VL: DIQMTQSPSSLSASVGDRVTITCKASQDVHTAVAWYQQKPGKAPKLLIYWASTRHTGVPSRFSGSGSGTDYTLTISSLQPEDFATYYCQQHYTTPYTFGQGTKLEIKR | –
